Patent publication US20110207796

What was measured:
[1] = system: alpha-synuclein A30P familial mutant
[2] = system: alpha-synuclein A53T familial mutant
[3] = system: alpha-synuclein E46K familial mutant
[4] = biological target: beta synuclein (UniProt Q16143)
[5] = system: human alpha-synuclein (wild-type, recombinant)

Polo like kinase 2 (PLK2), sequence (chain): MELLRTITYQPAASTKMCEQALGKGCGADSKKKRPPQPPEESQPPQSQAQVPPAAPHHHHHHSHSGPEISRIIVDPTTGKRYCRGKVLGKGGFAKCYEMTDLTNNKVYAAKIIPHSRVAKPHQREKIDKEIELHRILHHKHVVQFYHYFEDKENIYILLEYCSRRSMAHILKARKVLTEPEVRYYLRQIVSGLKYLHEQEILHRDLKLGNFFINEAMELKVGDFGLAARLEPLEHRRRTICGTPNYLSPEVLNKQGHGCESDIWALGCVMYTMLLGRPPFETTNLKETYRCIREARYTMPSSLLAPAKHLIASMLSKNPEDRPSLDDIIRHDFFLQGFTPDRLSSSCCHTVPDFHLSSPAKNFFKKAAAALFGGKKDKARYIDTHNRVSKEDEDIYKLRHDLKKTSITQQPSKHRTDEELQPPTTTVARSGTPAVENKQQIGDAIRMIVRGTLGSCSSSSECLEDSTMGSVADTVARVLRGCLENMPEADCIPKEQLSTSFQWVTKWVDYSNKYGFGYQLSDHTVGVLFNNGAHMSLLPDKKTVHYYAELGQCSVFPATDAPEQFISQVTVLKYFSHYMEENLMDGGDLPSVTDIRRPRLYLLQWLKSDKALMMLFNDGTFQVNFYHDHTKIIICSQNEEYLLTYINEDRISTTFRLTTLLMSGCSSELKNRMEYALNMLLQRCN
beta synuclein, sequence (Q16143 whole entry): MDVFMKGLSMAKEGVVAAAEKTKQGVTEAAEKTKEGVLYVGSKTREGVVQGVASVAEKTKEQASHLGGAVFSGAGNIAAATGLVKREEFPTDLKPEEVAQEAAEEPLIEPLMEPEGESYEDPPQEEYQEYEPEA

Substance	in vitro phosphorylation, autoradiography [1]	in vitro phosphorylation, autoradiography [2]	in vitro phosphorylation, autoradiography [3]	in vitro phosphorylation, autoradiography [4]	Fold Change in Percent Synuclein Phosphorylation (ELISA, HEK-293 overexpression) [5] [fold]	Proportion of total synuclein that is phoshorylated at ser-129 (ELISA, HEK-293 overexpression) [5] [%]	S129 phosphorylation, immunoblot (mAb 11A5), kinase:rAS 1:200 molar [5]	S129 phosphorylation, immunoblot (mAb 11A5), rank of signal [5]	in vitro biochemical assay, phosphorylation of synuclein [5]	in vitro kinase reaction, phosphorylation of alpha-synuclein at serine 129 [5]	in vitro phosphorylation, autoradiography [5]	phospho ser-129 in vitro, kinases normalized for molarity [5]	phosphorylation of alpha-synuclein at S129 on co-expression in bacteria, mass spectrometry [5]	S129 phosphorylation in vitro, kinases normalized by activity units [5]	S87 phosphorylation, immunoblot (pAb ELADW-110), kinase:rAS 1:200 molar [5]
Polo like kinase 2 (PLK2)	the mutant alpha-synucleins were phosphorylated more at a given concentration (especially at lower concentrations) than WT	the mutant alpha-synucleins were phosphorylated more at a given concentration (especially at lower concentrations) than WT	the mutant alpha-synucleins were phosphorylated more at a given concentration (especially at lower concentrations) than WT	minimally against beta synuclein	21.2	42.3	Prominent signals came from GRK6, CKI, CKII and PLK2	CKI>GRK6>PLK2>GRK4>GRK5>GRK2	PLK2 and PLK3 having extremely robust phosphorylation of synuclein	capable of phosphorylating alpha-synuclein specifically at serine 129 and did not phosphorylate serine 87 in vitro	PLK2 was found to be more active against wild-type alpha synuclein than beta synuclein	roughly equivalent levels of phospho ser-129 between CKI, GRK6 and PLK2	more than 95% phosphorylated		
casein kinase 2 (CKII)							Prominent signals came from GRK6, CKI, CKII and PLK2							CKII was not detectable	
casein kinase I (CKI)							Prominent signals came from GRK6, CKI, CKII and PLK2	CKI>GRK6>PLK2>GRK4>GRK5>GRK2				roughly equivalent levels of phospho ser-129 between CKI, GRK6 and PLK2		CKI gave a modest signal	A signal was detected only with CKI phosphorylation
